The data set concerns the target N234 (nucleoprotein domains N2-N3-N4) (SARS-CoV-2 (NC_045512.2), UniProt P0DTC9 47-364). The data set is described as follows: NMR; 1D NMR; 100 uM RNA, 50 uM N234. To be noted: protein: recombinant; tags: N-terminal His6-TEV, cleaved; chain copies: 2; single strand.

Take AAAAAA (ssRNA) [polyA hexameric RNA]: the binding result is “binds”.

The record behind these values is article PMC8769549, “The intrinsically disordered SARS-CoV-2 nucleoprotein in dynamic complex with its viral partner nsp3a”.
